Reference: US20220177549A1 (INVETX, published 2022)

Target: T1, equine FcRn complex (equine, UniProt F6XZ61 19-292; P30441 21-118)
T1 construct: Heterodimer of p51 extracellular domain (Avi-tag, 8x His) and Flag-tagged beta-2-microglobulin from HEK293 cells; also called horse FcRn
Experiment: SPR (Biacore 8K+), pH 5.9, 25 C; FcRn captured by anti-His, IgG as analyte; 1:1 kinetic model

B1: Equine G426Y (antibody)
chain: APELLGGPSVFIFPPNPKDTLMITRTPEVTCVVVDVSQENPDVKFNWYMDGVEVRTATTRPKEEQFNSTYRVVSVLRIQHQDWLSGKEFKCKVNNQALPQPIERTITKTKGRSQEPQVYVLAPHPDELSKSKVSVTCLVKDFYPPEINIEWQSNGQPELETKYSTTQAQQDSDGSYFLYSKLSVDRNRWQQGTTFTCYVMHEALHNHYTQKNVSKNPGK
Fold increase over wild-type KD: 2.8 fold | Kd: 52.3 nM
